Data published in PMC4108320, “Two Structurally Different Dienelactone Hydrolases (TfdEI and TfdEII) from Cupriavidus necator JMP134 Plasmid pJP4 Catalyse Cis- and Trans-Dienelactones with Similar Efficiency” (PLoS ONE, 2014).

Substrate: O=C(O)/C=C1/C=CC(=O)O1
Experiment: purified protein
Type: biochemical, Cupriavidus pinatubonensis
Details: Tris-Cl pH 7.0, 37 °C, 0.5 µM enzyme, 1-1000 µM substrate

Protein	Km [µM]	Vmax [µM/min]
TfdEII (Cupriavidus pinatubonensis JMP134) (protein, full-length tfdEII ORF (708 bp, 235 aa) in pET21b BamHI/HindIII; stop codon in reverse primer; E. coli BL21(DE3); about 25 kDa, monomeric) MCHDTAPALFPRTASTGSIDGAICALCYAGATRGPRLLVLPDIYGCNAFYRGYAAYLAEQGAGEVLLVDPFAAFGELATVTREAAFQRRHRLADRAYVEELIDFIDGQRIEGVVGFCLGGLFVFELARQQVVSRLVAYYPFPQGLENRDPLDVPFDYLPALRSRHTVIVGDDDALLGTQNLQRLQAQARANDAIDLHIMNGAGHGFLADLESPDTARAAVAKRGLRIGTTTLLGG	178	8.38
TfdEI (Cupriavidus pinatubonensis JMP134) (protein, full-length tfdEI ORF (705 bp, 234 aa) in pET21b BamHI/HindIII; stop codon in reverse primer; E. coli BL21(DE3); about 25 kDa, monomeric) MLSDGVEITSRSGGRFGAYLGKPTTDSAPIVVIAQEIFGITPFIRETVEWLVGAGFGCVCPDLYWRQAPNIELDANVPSEREQALALFRDFDMEAGVNDLSCAIEYARALPFSNGRVAVVGYCLGGALAFDVAARSLADCSIGYYGVGLEKKVSLVPAITRPAMFHMGTKDHYVTEEARSILEEHFGRNKNLSLHWYPVGHSFARSSSPNFDQAATTVANARTLELLAMLKDPS	84	9.09
